Source: publication PMC6393709

Biological target: PARP1 (protein used in the SPRi assay) (UniProt P09874)
Assay: SPR; SPRi on a PlexArray HT (V3), 25°C, 1x PBS pH 7.4

UniProt P09874, sequence (P09874 whole entry): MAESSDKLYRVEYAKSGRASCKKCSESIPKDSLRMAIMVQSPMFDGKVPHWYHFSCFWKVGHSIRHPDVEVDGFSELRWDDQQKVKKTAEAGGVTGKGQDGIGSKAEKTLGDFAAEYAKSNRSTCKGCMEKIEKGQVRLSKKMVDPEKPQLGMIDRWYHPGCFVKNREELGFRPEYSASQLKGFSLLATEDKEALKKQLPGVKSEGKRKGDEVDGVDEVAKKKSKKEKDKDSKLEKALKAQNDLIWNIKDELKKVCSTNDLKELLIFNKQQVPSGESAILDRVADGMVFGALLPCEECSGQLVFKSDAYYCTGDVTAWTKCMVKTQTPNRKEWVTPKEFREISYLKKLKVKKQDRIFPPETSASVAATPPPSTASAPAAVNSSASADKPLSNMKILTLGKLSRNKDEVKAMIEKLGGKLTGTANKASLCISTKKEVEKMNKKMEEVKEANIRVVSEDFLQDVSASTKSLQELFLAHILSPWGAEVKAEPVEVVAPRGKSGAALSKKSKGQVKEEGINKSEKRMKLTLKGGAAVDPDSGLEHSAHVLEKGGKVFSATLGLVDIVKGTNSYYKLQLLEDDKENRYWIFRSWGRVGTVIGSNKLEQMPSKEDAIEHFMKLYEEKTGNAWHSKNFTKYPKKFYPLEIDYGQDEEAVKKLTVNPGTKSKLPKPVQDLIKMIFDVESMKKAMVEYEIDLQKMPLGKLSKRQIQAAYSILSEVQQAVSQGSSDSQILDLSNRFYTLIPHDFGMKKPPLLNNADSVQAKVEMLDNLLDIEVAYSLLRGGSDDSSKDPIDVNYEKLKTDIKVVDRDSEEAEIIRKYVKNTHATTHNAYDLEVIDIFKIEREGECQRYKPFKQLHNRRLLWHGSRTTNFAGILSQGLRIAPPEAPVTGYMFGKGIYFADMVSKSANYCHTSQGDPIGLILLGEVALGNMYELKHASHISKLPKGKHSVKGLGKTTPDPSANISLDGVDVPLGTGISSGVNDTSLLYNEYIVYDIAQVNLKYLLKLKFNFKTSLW

Kd: 0.0136 µM
Substance: F-actin domain of ABL1 (domain or fragment)
